According to US20240366728A1 (CARMOT THERAPEUTICS, published 2024):

Tests used:
Test in all cases: cell-based or functional assay
human GIPR [1] = molecular target: T1, human GIPR (human, UniProt P48546 22-466)
T1 sequence (looked up): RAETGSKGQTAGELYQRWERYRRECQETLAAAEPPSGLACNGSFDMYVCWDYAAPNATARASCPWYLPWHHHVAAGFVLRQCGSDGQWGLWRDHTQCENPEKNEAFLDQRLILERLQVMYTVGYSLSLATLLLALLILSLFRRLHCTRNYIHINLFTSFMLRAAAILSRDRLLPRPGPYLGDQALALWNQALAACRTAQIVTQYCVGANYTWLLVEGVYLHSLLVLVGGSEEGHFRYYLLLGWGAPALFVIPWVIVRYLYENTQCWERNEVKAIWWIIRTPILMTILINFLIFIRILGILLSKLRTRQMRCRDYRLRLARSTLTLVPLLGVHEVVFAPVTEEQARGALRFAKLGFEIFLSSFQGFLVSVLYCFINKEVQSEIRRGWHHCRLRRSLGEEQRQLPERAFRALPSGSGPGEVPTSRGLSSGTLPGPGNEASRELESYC

human GLP-1R [2] = molecular target: T2, human GLP-1R (human, UniProt P43220 24-463)
mouse GIPR = molecular target: T3, mouse GIPR (mouse, UniProt Q0P543 19-460)
T3 sequence (looked up): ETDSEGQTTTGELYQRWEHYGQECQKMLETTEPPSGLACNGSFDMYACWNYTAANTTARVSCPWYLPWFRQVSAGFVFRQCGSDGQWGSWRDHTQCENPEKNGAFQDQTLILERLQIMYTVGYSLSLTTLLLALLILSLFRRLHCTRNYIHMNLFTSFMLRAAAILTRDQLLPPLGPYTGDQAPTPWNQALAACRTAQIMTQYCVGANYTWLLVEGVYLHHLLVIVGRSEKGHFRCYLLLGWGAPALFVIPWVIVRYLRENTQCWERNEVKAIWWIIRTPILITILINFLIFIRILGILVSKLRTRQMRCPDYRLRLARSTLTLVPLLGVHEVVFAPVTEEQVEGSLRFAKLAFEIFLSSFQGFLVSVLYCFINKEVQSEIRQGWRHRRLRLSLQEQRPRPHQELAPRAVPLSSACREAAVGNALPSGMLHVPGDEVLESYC

human GIPR [3] = molecular target: T1, human GIPR; remark: listed apart in the source
mouse GLP-1R = molecular target: T4, mouse GLP-1R (mouse, UniProt O35659 22-463)
T4 sequence (looked up): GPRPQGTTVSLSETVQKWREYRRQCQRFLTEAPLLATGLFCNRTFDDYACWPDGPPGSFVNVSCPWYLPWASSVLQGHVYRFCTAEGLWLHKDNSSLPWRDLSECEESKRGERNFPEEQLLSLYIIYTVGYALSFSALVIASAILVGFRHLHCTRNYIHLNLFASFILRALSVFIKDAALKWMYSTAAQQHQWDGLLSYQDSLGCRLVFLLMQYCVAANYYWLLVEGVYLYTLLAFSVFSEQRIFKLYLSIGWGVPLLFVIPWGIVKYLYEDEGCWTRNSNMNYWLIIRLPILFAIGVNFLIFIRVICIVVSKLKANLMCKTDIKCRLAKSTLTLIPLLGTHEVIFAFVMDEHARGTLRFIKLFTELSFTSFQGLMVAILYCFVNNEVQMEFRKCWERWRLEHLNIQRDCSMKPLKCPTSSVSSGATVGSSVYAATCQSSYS

human GLP-1R [4] = molecular target: T2, human GLP-1R; remark: listed apart in the source

B1: CT-868 (peptide)
peptide: EGTFTSDYSIYLDKQAAXEFVNWLLAGGPSSGAPPPSK
modifications: N-terminal 2-(2-Piperidon-1-yl)-ethylcarbamoylmethylthio-acetyl on Glu; Aib (18th residue of the printed chain); C-terminal Lys(γ-Glu-palmitoyl)-NH2; hydrochloride salt
- fold less potent than GIP (cAMP accumulation) (human GIPR [1]): 16 fold
- ratio GLP-1R over GIPR (cAMP potency) (human GIPR [1]): ~19.4
- fold less potent than GLP-1 (cAMP accumulation) (human GLP-1R [2]): 6 fold
- mGIPR cAMP (-alb) EC50 (mouse GIPR): 1.03 nM
- mGIPR β-arrestin-2 EC50 (mouse GIPR): 6.21 nM
- mGIPR/mGLP-1R cAMP ratio (mouse GIPR): 6
- hGIPR Internalization EC50 (human GIPR [3]): 14 nM
- hGIPR cAMP (-alb) EC50 (human GIPR [3]): 1.9 nM
- hGIPR β-arrestin-2 EC50 (human GIPR [3]): 13 nM
- hGIPR/hGLP-1R cAMP ratio (human GIPR [3]): 12
- mGLP-1R cAMP (-alb) EC50 (mouse GLP-1R): 0.164 nM
- mGLP-1R β-arrestin-2 EC50 (mouse GLP-1R): 21.1 nM
- hGLP-1R Internalization EC50 (human GLP-1R [4]): 3.1 nM
- hGLP-1R cAMP (-alb) EC50 (human GLP-1R [4]): 0.156 nM
- hGLP-1R β-arrestin-2 EC50 (human GLP-1R [4]): 11 nM
